Experimental data reported in CN112125974A (BIORAY LABORATORIES INC, dated 2020).

T1: BCMA on BCMA+ target cells (NCI-H929; K562-BCMA) (human, UniProt Q02223 1-184)
T1 sequence (looked up): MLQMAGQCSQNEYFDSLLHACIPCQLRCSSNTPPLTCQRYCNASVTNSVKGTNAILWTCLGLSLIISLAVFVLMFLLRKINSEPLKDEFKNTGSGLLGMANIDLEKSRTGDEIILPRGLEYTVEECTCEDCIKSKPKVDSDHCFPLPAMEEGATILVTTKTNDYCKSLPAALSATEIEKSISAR


Assays:
[1] = biological target: 人BCMA(hBCMA)蛋白 (human) (UniProt Q02223); assay: phage ELISA, 0.5 μg/ml hBCMA coated, phage supernatant, anti-M13-HRP
[2] = biological target: T1, BCMA on BCMA+ target cells (NCI-H929; …); assay: cell-based or functional assay
[3] = biological target: biotin-BCMA抗原 (human) (UniProt Q02223); assay: flow cytometry, T cells 72 h after infection, 0.2 μg/ml biotin-BCMA, APC-Streptavidin

| Binder | OD450 [1] [OD450] | proportion of target cells K562-BCMA in total cells, co-culture E:T 7:1, 0 h [2] [%] | proportion of target cells K562-BCMA in total cells, co-culture E:T 7:1, 48 h [2] [%] | proportion of target cells NCI-H929 in total cells, co-culture E:T 5:1, end [2] [%] | proportion of target cells NCI-H929 in total cells, co-culture E:T 5:1, start [2] [%] | CAR-BCMA阳性率 (percent of T cells stained by biotin-BCMA) [3] [%] |
| --- | --- | --- | --- | --- | --- | --- |
| 抗BCMA单链抗体4(命名为抗体2082) (scFv, V domains shown) VH: QVQLQQSGPALVKPSQTLSLTCVISGDSVSSNSASWTWIRQSPSRGLEWLGRTYRRADRWYYDYALSLNSRLTINPDTSKNHFALHLTSVTPEDTAVYYCSREYWGGSFDVWGQGTTVTVSS VL: QPVLTQPASVSGSPGQSITISCTGTSSDVGGYDYVSWYQQHPGKAPKLMLYEVNNRPSGVSNRFSGSKSGNTASLTISGLQAEDEGAYYCSSYTSSNTHVVFGGGTQLTVL | > 1.5 | – | – | – | – | – |
| 抗BCMA单链抗体3(命名为抗体2079) (scFv, V domains shown) VH: QVQLQQSGPGLVKPSQTLSLTCAISGDSVSSNSAAWNWIRQSPSRGLEWLGRTYYRSTWYNDYAVSVKSRITINPDTSKNQFSLQLNSVTPEDTAVYYCARGTGTLDYWGQGTLVTVSS VL: QSALTQPASVSGSPGQSITMSCTGTSSDVGGYKYVSWYQQHPGKAPQLMIHDVRERPSGVSNRFSGSKSGNTASLTISGLQAEDEADYYCSSFTNNSTFVFGTGTKVTVL | > 1.5 | – | – | – | – | – |
| 抗BCMA单链抗体2(命名为抗体2077) (scFv, V domains shown) VH: QVQLQQSGPGLVKPSQTLSLTCAISGDSVSSNSAAWNWIRQSPSRGLEWLGRTYYRSKWYNDYAVSVKSRITINPDTSKNQFSLQLNSVTPEDTAVYYCARLAYEVRSTDWYFDLWGRGTLVTVSS VL: QPVLTQPPSVSEAPRQRVTISCSGSSSNIGNNAVNWYQQLPGKAPKLLIYYDDLLPSGVSDRFSGSKSGTSASLAISGLQSEDEADYYCAAWDDSLNGWVFGGGTKLTVL | > 1.5 | – | – | – | – | – |
| 2073嵌合抗原受体 (CAR-BCMA-2073, on T cells CAR-BCMA-2073-T) (other) DIVMTQSPDSLAVSLGERATINCKSSQNVLYSSNNRNYLAWYQQKPGQPPKLLIYWASTRESGVPDRFSGSGSGTDFTLTISSLQAEDVAVYYCQQYYGSVVTFGGGTKVEIKGSTSGSGKPGSGEGSTKGQVQLQQSGPGLVKPSQTLSLTCAISGDSVSSNSAAWNWIRQSPSRGLEWLGRTYYRSKWYNDYALSVKSRITINPDTSKNQFSLQLNSVTPEDTAVYYCARGASSFDYWGQGTLVTVSSTTTPAPRPPTPAPTIASQPLSLRPEACRPAAGGAVHTRGLDFACDIYIWAPLAGTCGVLLLSLVITLYCKRGRKKLLYIFKQPFMRPVQTTQEEDGCSCRFPEEEEGGCELRVKFSRSADAPAYKQGQNQLYNELNLGRREEYDVLDKRRGRDPEMGGKPRRKNPQEGLYNELQKDKMAEAYSEIGMKGERRRGKGHDGLYQGLSTATKDTYDALHMQALPPR | – | 8.69 | 6.1 | 0.435 | 15.4 | 45.1 |
| 2079嵌合抗原受体 (CAR-BCMA-2079, on T cells CAR-BCMA-2079-T) (other) QSALTQPASVSGSPGQSITMSCTGTSSDVGGYKYVSWYQQHPGKAPQLMIHDVRERPSGVSNRFSGSKSGNTASLTISGLQAEDEADYYCSSFTNNSTFVFGTGTKVTVLGSTSGSGKPGSGEGSTKGQVQLQQSGPGLVKPSQTLSLTCAISGDSVSSNSAAWNWIRQSPSRGLEWLGRTYYRSTWYNDYAVSVKSRITINPDTSKNQFSLQLNSVTPEDTAVYYCARGTGTLDYWGQGTLVTVSSTTTPAPRPPTPAPTIASQPLSLRPEACRPAAGGAVHTRGLDFACDIYIWAPLAGTCGVLLLSLVITLYCKRGRKKLLYIFKQPFMRPVQTTQEEDGCSCRFPEEEEGGCELRVKFSRSADAPAYKQGQNQLYNELNLGRREEYDVLDKRRGRDPEMGGKPRRKNPQEGLYNELQKDKMAEAYSEIGMKGERRRGKGHDGLYQGLSTATKDTYDALHMQALPPR | – | 9.28 | 8.69 | 6.63 | 11.3 | 22.3 |
